Source: patent US20250092148A1 (Kyowa Kirin, published 2025)
Changes are numbered by the printed parent chain.

What was measured:
human CD131 G198A = target: T1, human CD131 G198A (human, UniProt P32927 17-897); assay: flow cytometry, Fab on HEK-293T cells expressing the mutant; labels of this column stand one row too low, mutant assigned after shifting them up
T1 construct: whole, on cells
T1 sequence (looked up): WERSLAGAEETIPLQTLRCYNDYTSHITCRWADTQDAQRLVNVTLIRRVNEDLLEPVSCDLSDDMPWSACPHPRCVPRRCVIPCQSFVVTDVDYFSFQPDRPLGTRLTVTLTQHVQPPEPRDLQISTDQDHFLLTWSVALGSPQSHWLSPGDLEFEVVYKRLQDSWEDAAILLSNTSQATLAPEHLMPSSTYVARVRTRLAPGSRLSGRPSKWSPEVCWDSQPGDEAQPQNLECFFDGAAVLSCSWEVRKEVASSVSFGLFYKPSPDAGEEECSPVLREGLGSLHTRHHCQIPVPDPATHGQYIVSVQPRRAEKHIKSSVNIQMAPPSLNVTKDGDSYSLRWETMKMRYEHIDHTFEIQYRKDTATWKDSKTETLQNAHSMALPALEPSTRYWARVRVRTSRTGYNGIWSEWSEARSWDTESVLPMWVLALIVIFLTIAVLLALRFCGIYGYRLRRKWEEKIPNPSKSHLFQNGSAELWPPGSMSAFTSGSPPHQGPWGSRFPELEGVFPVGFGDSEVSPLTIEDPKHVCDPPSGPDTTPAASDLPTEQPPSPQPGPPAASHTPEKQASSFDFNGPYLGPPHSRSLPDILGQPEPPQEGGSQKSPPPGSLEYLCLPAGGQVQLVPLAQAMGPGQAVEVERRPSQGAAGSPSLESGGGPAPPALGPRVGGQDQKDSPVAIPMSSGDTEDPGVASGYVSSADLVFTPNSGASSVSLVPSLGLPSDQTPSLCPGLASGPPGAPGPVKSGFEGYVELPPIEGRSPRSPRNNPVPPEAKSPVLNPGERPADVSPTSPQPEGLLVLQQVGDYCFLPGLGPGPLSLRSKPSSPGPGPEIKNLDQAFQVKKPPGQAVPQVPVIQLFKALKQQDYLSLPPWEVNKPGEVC

human CD131 P199A = target: T2, human CD131 P199A (human, UniProt P32927 17-897); assay: as above
T2 construct: whole, on cells
T2 sequence (looked up): T1 sequence (looked up) with A182G, P183A

human CD131 W163A = target: T3, human CD131 W163A (human, UniProt P32927 17-897); assay: flow cytometry, Fab on HEK-293T cells expressing the mutant; labels of this column stand one row too low, mutant assigned after shifting them up (text: W163 is an epitope residue)
T3 construct: whole, on cells
T3 sequence (looked up): T1 sequence (looked up) with W147A, A182G

- Binding Reactivity (% WT) (human CD131 G198A): 194 % WT
- Binding Reactivity (% WT) (human CD131 P199A): 96.8 % WT
- Binding Reactivity (% WT) (human CD131 W163A): -9 % WT
B1: anti-CD131 antibody 131-B2, Fab (Fab, V domains shown)
VH: QVQLVQSGAEVKEPGASVKISCKASGYTFTNDYMHWVRQAPGQGLEWMGIINPTGGGTSYAQKFRGRVTMTRDTSTSTVYMELSSLRSEDTAVFYCARERYYGSGTYFNIGLWYFDLWGRGTLVTVSS
VL: not shown
notes: Fab made from the antibody by an enzyme treatment
